The values that follow come from article doi:10.1101/2024.08.19.608714 (bioRxiv, 2024).

What is called stoichiometry N is a count of units in the complex or per binding partner.

The series deals with the molecule itself. Description: cryo-EM structure.

B1: human XPR1 (natural protein)
chain: MKFAEHLSAHITPEWRKQYIQYEAFKDMLYSAQDQAPSVEVTDEDTVKRYFAKFEEKFFQTCEKELAKINTFYSEKLAEAQRRFATLQNELQSSLDAQKESTGVTTLRQRRKPVFHLSHEERVQHRNIKDLKLAFSEFYLSLILLQNYQNLNFTGFRKILKKHDKILETSRGADWRVAHVEVAPFYTCKKINQLISETEAVVTNELEDGDRQKAMKRLRVPPLGAAQPAPAWTTFRVGLFCGIFIVLNITLVLAAVFKLETDRSIWPLIRIYRGGFLLIEFLFLLGINTYGWRQAGVNHVLIFELNPRSNLSHQHLFEIAGFLGILWCLSLLACFFAPISVIPTYVYPLALYGFMVFFLINPTKTFYYKSRFWLLKLLFRVFTAPFHKVGFADFWLADQLNSLSVILMDLEYMICFYSLELKWDESKGLLPNNSEESGICHKYTYGVRAIVQCIPAWLRFIQCLRRYRDTKRAFPHLVNAGKYSTTFFMVTFAALYSTHKERGHSDTMVFFYLWIVFYIISSCYTLIWDLKMDWGLFDKNAGENTFLREEIVYPQKAYYYCAIIEDVILRFAWTIQISITSTTLLPHSGDIIATVFAPLEVFRRFVWNFFRLENEHLNNCGEFRAVRDISVAPLNADDQTLLEQMMDQDDGVRNRQKNRSWKYNQSISLRRPRLASQSKARDTKVLIEDTDDEANT
As for B1, the “stoichiometry N” value was determined as 2.
